Test results published in patent EP1241259A1 (UNIVERSITE LIBRE DE BRUXELLES, dated 2002).

Target: ORL1 (Opioid Receptor-Like 1) receptor stably expressed on recombinant CHO(ORL1^+) cells (UniProt P41146 1-370, limits assumed)
Test: cell-based or functional assay

Sequence of ORL1 (Opioid Receptor-Like 1) receptor stably expressed on recombinant CHO(ORL1^+) cells (P41146 whole entry): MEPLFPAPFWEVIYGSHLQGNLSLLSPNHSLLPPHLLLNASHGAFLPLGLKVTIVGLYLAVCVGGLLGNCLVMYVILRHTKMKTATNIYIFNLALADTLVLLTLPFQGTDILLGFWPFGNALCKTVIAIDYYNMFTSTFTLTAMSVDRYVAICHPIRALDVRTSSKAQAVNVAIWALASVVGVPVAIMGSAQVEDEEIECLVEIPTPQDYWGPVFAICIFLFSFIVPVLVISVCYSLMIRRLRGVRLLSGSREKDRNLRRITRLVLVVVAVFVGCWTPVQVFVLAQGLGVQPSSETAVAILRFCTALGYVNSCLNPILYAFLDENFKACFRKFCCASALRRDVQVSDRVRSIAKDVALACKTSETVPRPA

inhibition of forskolin-induced accumulation of cAMP in CHO cells expressing the receptor, IC50: 1 nM
B1: ^1Tyr analogue of the synthetic heptadecapeptide (peptide)
peptide: YGGFTGARKSARKLANQ
